Earlier results, collected in article PMC8711257.

Experiments:
MET (Homo sapiens) = MET (Homo sapiens) (UniProt P08581)
MET ECD (Homo sapiens) = MET ECD (Homo sapiens) (UniProt P08581)

Kd (MET (Homo sapiens)): 0.003 µM
Kd (MET ECD (Homo sapiens)): 0.15 µM
Substance: HGF NK1 NK1 (from UniProt P14210)
